This is an account of results in article PMC4484809, “Formation of a Trimeric Xpo1-Ran[GTP]-Ded1 Exportin Complex Modulates ATPase and Helicase Activities of Ded1”.

The target in one series is Ded1 wild type (Saccharomyces cerevisiae, UniProt P06634 1-604). Briefly: EMSA; 3 mM AMP-PNP; challenged with unlabeled 41mer RNA; EMSA: 50 mM Tris pH 7.8, 60 mM NaCl, 2 mM MgCl2, 0.1 mg/mL BSA, 5% glycerol, 1 U/uL RNasin Plus, 0.01% NP-40, 1 mM DTT; 900 nM Ded1, 10 nM RNA, 20 min room temperature, then 41mer competitor RNA (27 uM solution) 1 min before 7% native PAGE at 4 C. The following applies: protein: recombinant; tags: His-tag removed with preScission protease; N-terminal GP from vector; single-stranded.

For a further series, the target named is Xpo1;Ran[GTP] Q71L (Saccharomyces cerevisiae;Saccharomyces …, UniProt P30822;P32835 1-1071;1-219, |Q71L). Briefly: EMSA; no Ded1; no significant supershift; EMSA: 50 mM Tris pH 7.8, 60 mM NaCl, 2 mM MgCl2, 0.1 mg/mL BSA, 5% glycerol, 1 U/uL RNasin Plus, 0.01% NP-40, 1 mM DTT; 900 nM Ded1, 10 nM RNA, 20 min room temp.
The target in the next series is Ded1 sNES (Saccharomyces cerevisiae, UniProt P06634 =D+1-604, A2D;E6K;Q7K;V8F;Q9G;N10T;internal_change). Nature of the series: EMSA; 3 mM AMP-PNP; bound to the same extent as wild-type Ded1; EMSA: 50 mM Tris pH 7.8, 60 mM NaCl, 2 mM MgCl2, 0.1 mg/mL BSA, 5% glycerol, 1 U/uL RNasin Plus, 0.01% NP-40, 1 mM DTT; 900 nM Ded1, 10 nM RNA, 20 min room temperature, then 41mer competitor RNA (27 uM solution) 1 min before 7% native PAGE at 4 C. The note with it: protein: recombinant; tags: His-tag removed with preScission protease; N-terminal GP from vector; single-stranded. For orientation: A gel shift assay detects complexes by their altered migration in electrophoresis.

CGAAUUCAAAACAAAACAAAACUAG (ssRNA) [25mer FAM-labeled ssRNA]: the values for the binding result with Ded1 wild type, in the series with Xpo1;Ran[GTP] Q71L and with Ded1 sNES were “binds”, “no binding” and “binds”, respectively.
